Results: the nanobody polyreactivity screen of Harvey et al. (2022)

Experiment: yeast display, Sf9 membrane polyspecificity reagent, FACS + sequencing; frameworks hold sequencing errors
Method in brief: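 In a synthetic yeast display library (Saccharomyces cerevisiae BJ5465), nanobody expression was induced with galactose for 36–48 hours. FACS gates were set low and high (top ~1%) using anti-HA fluorescence for expression and streptavidin fluorescence for binding of the Sf9 membrane reagent. Each polyreactivity label is drawn from the gate of origin.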

Row | Sequence | polyreactivity (PSR sort gate)
1 | QVQLVESGGGLVQAGGSLRLSCAASGSTFWYYVMGWYRQAPGKERELVAAISTRGDSTYYADSVKGRFTISRDNAKITVYFQMNSLKPEDTAVFDCAKSRQYSGRVRFDYWGKGTQVTVSS | low polyreactivity
2 | QVQLVESGGGLVQAGGSLRLSCAASGRIFPAYAMGWYRQAPGKEREWVASIRRGGITYADSVKGRFTISRDNAKNTVYLQMNSLKPEDTAVYYCNADYRGWGYHMDYWGQGTQVTVSS | low polyreactivity
3 | QVQLVESGGGLFQAGGILRLSCAASGFTFERNDMGWYRQAPGKERELVATISQSGTNTYYADSVKGRFTISRDNAKNTVYVQMNSMKPEDTAVYYCNARYIFYRYDYWGHGTQVTVSS | low polyreactivity
4 | QVQLVESGGGLVQAGGSLRLSCPASGSIYGLYSMGWYRQAPGKERELVAVITYSVGTTYYADSVKGRFTISRDNAKNTVYLQMNSLKPEDTAVYYCAADLYWYYPWSAYYGEYDYWGQGTQVTVSS | low polyreactivity
5 | QVQLVESGGGLVQAGGSLRLSCAASGSIFDYNGMGWYRQAPGKERELVATITLSTARTYYADSVKGRFTISRDNAKNTVYLQMNSLKPEDTAVYYCAATRLTPYIYGGKYNYWGQGTQVTVSS | high polyreactivity
6 | QVKLVESGGGLVQAGGSLRLSCSASGFTFRFYAMGWYIQAPGKERELVASITRSGGSTYYADSVKGRFTISRDNAKNTVYLQMNSLKPEDTAVYYCAAYRCYVSYKEMYYLGQGTQVTVSS | high polyreactivity
7 | QVQLVESGGGLVQAGGSLRLSCAASGSTFFTYAMGWYRQAPGKERELVAAITRGGSSYYADSVKGRFTISRDNAKNTVYLLMNSLKPEDTAVYDCAARVSYRYGYWGQGTQVTVSS | high polyreactivity
8 | QVQLVESGGGLVQAGGSLRLSCAASGRTIIVYAMGWYRQAPGKERELVASITGIGDRTYYADSVKGRFTISRDNAKNTVYLQMNSLKPEDTAVYYCAKYGRTRFYYWGQGTQVTVSS | high polyreactivity
9 | QVQLVESAGGLVQAGGSLRLSCAASGRIFYGNAMGWYRQAPGKERELVAAISKRGGSTHYAASVKGRFTISRDNAKNTVYLQMNSLKPEDTAVYYCATDSYYVGAVHYYYWGQGTQVTVSS | high polyreactivity
10 | QVQLVESGRGLVQAGGSLRLSCAASGLTFTPYAMGWYRQAPGKERELVAAITSGGRTYYADSVKGRFTSSRDNAKNTVYLQMNSLKPEDTAVYYCNADPEYSWWYYGLDYWGQGTQVTVSW | high polyreactivity
11 | QVQLVESGGGLVHAGGRLRLSCAASGRTFGFYTMGWYRQPPGKERELVAGISRGGSTTYADSVKGRFTISRDNAKNTVYLQMNSLKPEDTAVYYCNADRSHYWLPYGVRFDYWGQGSQVTVSS | low polyreactivity
12 | QVQLVESGGGLVQAGGSLRLSCAAYGSIFTGNTMGWYRQATGKERELVATISRRGGSTYYADSVKGRFTISRDNAKNTVYLQMNSLKPEDTAVYYCARGTVYLTWRNDYWGQGTQVTVSS | high polyreactivity
13 | QVQLVESGGGLVQAGGSLRLSCAASGSTFRRKVMGGYRQAPGKERELVASIRSGGTTNYADSVKGRFTISRDNAKNTVYLQMNSLKPEDTAVYYCNKRLFWYRHYYYLGQGTQVTVSS | high polyreactivity
14 | QVQLVESGGGLVQAGGSLPLSCAASGRTIYRYAMGSYRQAPGKERELDAAIRRSGDSTYYADSVKGRFTISRDIAKKTVYLQMNSLKPEDTAVYYCNAVASGRTYDYWGQGTQVTVSS | high polyreactivity
15 | QVQLVESGGGLVQAGGSLRLSCAASGFTFSSNAMGSYRQAPGKERELVAAISFNSTSTYYADSVKVRFTISRDNAKNTVYLQMNSLKPEDTAVYYCAADVPRVQSEPEYDYSGQGTQVTVSS | low polyreactivity
16 | QVQLVESGGGLVQAGGSLRLSCAASGRIFERYAMGAYRQAPGKERELVAAISVSGSGTFYADSVKGLFTISRDNAKNTVYLQMNSLKTEDTAVYYCAADASLLGLFQGYDYWGQGTQVSVSS | low polyreactivity
17 | QVQLVESGGGLVQAGGSLRLSCAASGRIFRYYAMGWYSQAPGQDRELVAAISWSGGSTYYADSVKGRFTISRDKAKNTVYLQMHSLKPEDTAVYYCNKVPLGLEGDYWGQGTQVTVSS | high polyreactivity
18 | QVQLVESGGGLVQAGGSLRLSCAASGSIFVKNAMGWYRQAPGKERELVARITYSGGSTYYADSVKGRFTISRDNAKNTVYLQMNSLKPEDTAVYYCAARYWYFPQTYYPGNDYWGQGTQVTVSS | high polyreactivity
19 | QVQLEESGGGLVQAGGSLRLSCAASGRIFGYYAMGWYRQAPGKERELVATITFGGGSTYYADSVKGRFTISRDNAKNTVYLQMNSLKPEDTAVYYCAADSGYLGIYGDEYSWGQGTQVTVSS | low polyreactivity
20 | QVQHVDSGGGLVQAGGSLRLSCAASGSTFGYNAMGWYRQAPGKERELVAAITFSGDSTSYADSVKGRFTISRDNAKNSVYLQMNSLKPEDTAVYYCAVDTWNGDGSGYSLEFEYWGQGTQVTVSS | low polyreactivity
21 | QVQLVESGGGLVQAGGSLRLSCAASGFNFYRYTLGWYRQAPGKERELVASITRRCGSTYYADSVKGRFTISRDNAKHTVYLQMNILKQEDTAEYYCNDATPVWQSGTYDYWGQGTQVTVSS | high polyreactivity
22 | QVQLVESGGGLVQAGGSLRLSCAASGRTFGRYAMGWYRQAPGKERELVAAINRGGSTKYADSVKGRFTISRDNAKNTVYLQMNSLKPEDTAVYYCAKDRHPALHYDYWGQGTQVTVSS | low polyreactivity

Row | Sequence | polyreactivity (PSR sort gate)
23 | QVQLVESGGGLVQAGGSLRLSCAASGFISTINVMGCYRQAPGKERELVAAITYIDGSTFYADSVKGRFTISRDNAKNTVYFQMNSLKPEDTAVYYCASDLYLWGAVFLYVRSTGLDYWGQGTQVTVSS | low polyreactivity
24 | QVQLVESGGGLVQAGGSLRLSCAASGITFQNYAMGWYRQAPGKERELVAAITRSGGRTYYADSVKGRFTISRDNAMNTVYLQMNSLKPEDTAVYYCAVYGIGRPYWYDYWGQGTQVTVSS | high polyreactivity
25 | QVQLQESVGGLVQAGGTLRLSCAGRGNIYTHQLYMGSYRQAPGKEIDFVAAINFGASPYYADSVKGRNTISRDNAKNTVYLLMNSLKPEDTAVYYCAADSAFYDEYQEDYWGQGTQVTLSS | low polyreactivity
26 | QVQLVESGGGLVQAGGSLRLSCAASGITFLFYVMGRYRQERGKERELVSTINSDDTTYYADSVKGRFTISRDNAKNTVYLQMNCLKPEDTAVYYCAADTWLWYGFDHWGQGTQVTVSS | high polyreactivity
27 | QVQLVESGGGLVQAGGSLRLSCAASGRIFYWYGMGWYRQAPGKERELVAGITYSASRTYYADSVKGRFTISRDNVKNTVYLQMNCMKPEVTAVYYCAAGRYHRDDGYDYWGQGTQVTVSS | low polyreactivity
28 | QVQLVESGGGLVQAGGSLRLSCAASGSTFKYNTMGWYRQAPGKKGELVAAITISGGTTRYADSVKGRFTISRDNAKNTVYLQMNSLKPEDTAVYYCAARVYTYYYDLHKRYYWGQGTQVTVSS | high polyreactivity
29 | QVQLVESGGGLVQAGGSLRVSCADSGGIFALNDMGWYRQAPGKERELVAAINGAGTYYADSVKGRFTISRDNAKNTVYLQRNSLKPEDTAVYYCARGSLHWEYARTWTRVEYDYWGQGTQVTVSS | low polyreactivity
30 | QVQLVESGGGLVQAGGSLRLSCAASGIIFARYAMGWYRQAPGKERELVAVISGSGGSTYYADSVKGRFTISRDNAKNTVYLQMNSLKPEDTAVYYCNAEFESGHDLDWYDYWGQGTQVTVSS | low polyreactivity
31 | QVQLVESGGGLVQAGGSLRLSCAASGSTFDGYALGWYRQAPGKERELVAAISKNGGRTYYADSVKGRFTISRDNAKNTVYLQMNSLKPEDTAVYYCAKDIIKYDYDYWGQGTQVTVSS | low polyreactivity
32 | QVQLVESGGGLVQAGGSLRLSCAASGSTSGIYAMGWSRQAPGKERELVAAIDTSGGSTYADSVKGRFTISRDNAKNTVYLQMNSLKPEATAVYYCARTWGLRYRWSYGRSRYNFWGQGTQVTVSS | low polyreactivity
33 | QVQLVESGGGLVQAGGSLRLSCAASGLIFSSNAMGWYRQAPGKERELVAAISRRGGNTYYADSVKGRFTISRDNAKNTVYLQMNSLKPEDTAVYYCAIRYVGRGTSYQDYYWGLGTQVTVSS | high polyreactivity
34 | QVQLVESGGGLVHAGCSLRLSCAAYGRNFYRYAMGWYRQAPGKERALVAAISGSVGSTYADTEKGRFTSSRDNAKNTVYLQMNSLKPEDTAVYYCARESYRRYGAYDYWGQGTQVTESS | low polyreactivity
35 | QVQLVESGGGLVQAGGSLRLTCAASGSISGLYTMGWYRQAPGKERELVAAIRWTTGTTYYADSVKGRFTISRDNAKNTVYLQMNSLKPEDTAVYYCNVVTWYYVFRPWEYDYWGQGTQVTVSS | low polyreactivity
36 | QVQLVESGGGLVQAGGSLRLSCAASGRIFGRYVMGWYRQAPGKERELVARIRRNGGSTYYADSVKGRFTISRDNAKNTVYLQMNSLKPDDTAVYDCAAESYDTWRRYESWGQGTQVTVSS | high polyreactivity
37 | QVQLVESGGGLVQAGGSLRLSCAASGRTFRANTMGWYRLAPGKERELVAAISHSGGSTYYADSVKGRFTISRDNAKNTVYLQMNSLKPEDTAVYYCATDGGSYSWASPRVDYWGQGTQVTVSS | low polyreactivity
38 | QVQLVESGGGLVQAGGSLRLSCAASGRMFWSNAMGWYIQAPGKERELFAAIRNTGSTNYADSVKGRFTISRDNAKNTVYLQMNSLKPEDTAVYYCAAYKGSSKYDYWGQGTQVTVSS | high polyreactivity
39 | QVQLVESGGGLVQAGGSLRLSCAASGSIFLYNAMGWYRQAPGKERELVADITTTGGSTYYADSVKGRFTISRDNAKNTVYLQMNSLKPEDTAVYYCNVDYWGQGTQVTVSS | low polyreactivity
40 | QVQLVESGGGLVQAGGSLRLSCAASGRTFVYNAMGWYRQAPGKERELVAAINWRGGSTYYADSVKGRFTISRDNAKNTVSLQMNSLKPEDTAVYYCAPRNVYVWYDYWGQGTQVTVSS | low polyreactivity
41 | QVQLEESGGGSVQAGGSLRISCAASGFTFFSYTMGWYRQAPGKERELVAAISKRGSRTYYADSVKGRFTISRDHAKNTVDLQMNSLKPEDTAVYYCAADAGPEVVHRREDYWGQVTQVTVSS | high polyreactivity
42 | QVQLVESGGGLVQAGGSLRLSCAASGFISDDYAMGWYRQAPGKERELVAAISDSGVDTYYADSVKGRFTISRDNAKNTVYLQMNSLKPEDTAVYYCNKRYVIRRRGYDYWGQGTQVTVSS | low polyreactivity
43 | QVQLVESGGGLVQAGGSLRLSCADSGYIFDAYAMGWYRQAPGKERELVAAIDIGGSTYYADSVKGRFTISRDNAKNTVYLQMNSLKPEDTAVYYCAEWFYFDQWDYAREYWGQGTQVTVSS | low polyreactivity
